In the supplement of paper PMC9112550, “Optimization of the antimicrobial peptide Bac7 by deep mutational scanning” (BMC Biology, 2022):

System: Escherichia coli TOP10
Experiment: shrunken log2 fold change of peptide-encoding DNA abundance (4.5 h post-induction vs induction); higher = less antimicrobial activity (less host growth inhibition)
Details: time post-induction: 4.5 h; library: site-saturation at positions 5, 18, 19, 20
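Further: peptides expressed intracellularly from a pBAD plasmid library in pooled LB shake-flask culture, induced with 0.3% L-arabinose, DNA abundance read by NGS, three biological replicates, DESeq2 with apeglm shrinkage.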

RRIRGRPPRLPRPRPRPLAVPRP
shrunken log2 fold change: 0.809

RRIRYRPPRLPRPRPRPPIVPRP
shrunken log2 fold change: -0.756

RRIRERPPRLPRPRPRPCQLPRP
shrunken log2 fold change: -0.265

RRIRYRPPRLPRPRPRPHHNPRP
shrunken log2 fold change: -1.28

RRIRERPPRLPRPRPRPNTFPRP
shrunken log2 fold change: -0.388

RRIRSRPPRLPRPRPRPHVFPRP
shrunken log2 fold change: 2.95

RRIRSRPPRLPRPRPRPNTTPRP
shrunken log2 fold change: -0.194

RRIRHRPPRLPRPRPRPQSFPRP
shrunken log2 fold change: 0.0133

RRIRSRPPRLPRPRPRPYHEPRP
shrunken log2 fold change: -1.19

RRIRIRPPRLPRPRPRPQENPRP
shrunken log2 fold change: -0.494

RRIRQRPPRLPRPRPRPITTPRP
shrunken log2 fold change: -0.0809

RRIRCRPPRLPRPRPRPNMCPRP
shrunken log2 fold change: -0.222

RRIRTRPPRLPRPRPRPGNGPRP
shrunken log2 fold change: -0.222

RRIRYRPPRLPRPRPRPTGQPRP
shrunken log2 fold change: 0.0557

RRIRARPPRLPRPRPRPDIPPRP
shrunken log2 fold change: -0.192

RRIRHRPPRLPRPRPRPWSCPRP
shrunken log2 fold change: -0.0195

RRIRLRPPRLPRPRPRPHRQPRP
shrunken log2 fold change: 0.115

RRIRWRPPRLPRPRPRPHREPRP
shrunken log2 fold change: -0.0345

RRIRFRPPRLPRPRPRPKNIPRP
shrunken log2 fold change: -0.485

RRIRFRPPRLPRPRPRPKKGPRP
shrunken log2 fold change: 0.106

RRIRKRPPRLPRPRPRPWGKPRP
shrunken log2 fold change: 0.0646

RRIRTRPPRLPRPRPRPALVPRP
shrunken log2 fold change: 0.0324

RRIRQRPPRLPRPRPRPPRWPRP
shrunken log2 fold change: 0.303

RRIRARPPRLPRPRPRPIPEPRP
shrunken log2 fold change: 0.0265

RRIRDRPPRLPRPRPRPNQYPRP
shrunken log2 fold change: -0.428

RRIRSRPPRLPRPRPRPATLPRP
shrunken log2 fold change: -0.0555

RRIRVRPPRLPRPRPRPMQAPRP
shrunken log2 fold change: -0.0023

RRIRHRPPRLPRPRPRPNCAPRP
shrunken log2 fold change: 0.0721

RRIRWRPPRLPRPRPRPPTKPRP
shrunken log2 fold change: 4.13

RRIRERPPRLPRPRPRPGQFPRP
shrunken log2 fold change: -0.295

RRIRWRPPRLPRPRPRPTPGPRP
shrunken log2 fold change: 0.572

RRIRPRPPRLPRPRPRPYQEPRP
shrunken log2 fold change: -0.418

RRIRWRPPRLPRPRPRPKHIPRP
shrunken log2 fold change: -0.41

RRIRSRPPRLPRPRPRPPAAPRP
shrunken log2 fold change: 1.1

RRIRFRPPRLPRPRPRPMTQPRP
shrunken log2 fold change: -0.421

RRIRQRPPRLPRPRPRPIENPRP
shrunken log2 fold change: 0.219

RRIRMRPPRLPRPRPRPIEKPRP
shrunken log2 fold change: -0.00199

RRIRHRPPRLPRPRPRPRQQPRP
shrunken log2 fold change: 0.283

RRIRGRPPRLPRPRPRPRGRPRP
shrunken log2 fold change: 1.52

RRIRMRPPRLPRPRPRPRSYPRP
shrunken log2 fold change: 0.068

RRIRIRPPRLPRPRPRPRVSPRP
shrunken log2 fold change: 0.0983

RRIRRRPPRLPRPRPRPPGGPRP
shrunken log2 fold change: 0.348

RRIRHRPPRLPRPRPRPDWNPRP
shrunken log2 fold change: -0.207

RRIRFRPPRLPRPRPRPCGFPRP
shrunken log2 fold change: 0.0163

RRIRERPPRLPRPRPRPDYPPRP
shrunken log2 fold change: 0.00237

RRIRWRPPRLPRPRPRPSLSPRP
shrunken log2 fold change: 1.36

RRIRIRPPRLPRPRPRPRPDPRP
shrunken log2 fold change: 0.0926

RRIRCRPPRLPRPRPRPRRDPRP
shrunken log2 fold change: 0.0823

RRIRSRPPRLPRPRPRPTPCPRP
shrunken log2 fold change: 0.254

RRIRFRPPRLPRPRPRPILAPRP
shrunken log2 fold change: 0.0156

RRIRYRPPRLPRPRPRPRMIPRP
shrunken log2 fold change: -0.118

RRIRWRPPRLPRPRPRPGANPRP
shrunken log2 fold change: 0.0566

RRIRNRPPRLPRPRPRPMGAPRP
shrunken log2 fold change: 0.115

RRIRKRPPRLPRPRPRPIWIPRP
shrunken log2 fold change: -0.0325

RRIRPRPPRLPRPRPRPLSCPRP
shrunken log2 fold change: -0.0219

RRIRFRPPRLPRPRPRPADPPRP
shrunken log2 fold change: 0.109

RRIRHRPPRLPRPRPRPSTQPRP
shrunken log2 fold change: -0.0473

RRIRPRPPRLPRPRPRPPVYPRP
shrunken log2 fold change: 0.162

RRIRPRPPRLPRPRPRPVLWPRP
shrunken log2 fold change: 0.374

RRIRSRPPRLPRPRPRPDRPPRP
shrunken log2 fold change: -0.0605

RRIRSRPPRLPRPRPRPVQKPRP
shrunken log2 fold change: 0.178

RRIRTRPPRLPRPRPRPEARPRP
shrunken log2 fold change: 0.552

RRIRMRPPRLPRPRPRPKEIPRP
shrunken log2 fold change: 0.38

RRIRNRPPRLPRPRPRPVDMPRP
shrunken log2 fold change: -0.104

RRIRLRPPRLPRPRPRPIASPRP
shrunken log2 fold change: -0.0599

RRIRWRPPRLPRPRPRPMSGPRP
shrunken log2 fold change: 0.118

RRIRKRPPRLPRPRPRPDVTPRP
shrunken log2 fold change: 1.47

RRIRTRPPRLPRPRPRPYCGPRP
shrunken log2 fold change: -0.294

RRIRTRPPRLPRPRPRPWFGPRP
shrunken log2 fold change: 0.0864

RRIRPRPPRLPRPRPRPMYPPRP
shrunken log2 fold change: -0.135

RRIRKRPPRLPRPRPRPEQAPRP
shrunken log2 fold change: 0.776

RRIRLRPPRLPRPRPRPINEPRP
shrunken log2 fold change: -0.0016

RRIRERPPRLPRPRPRPMVIPRP
shrunken log2 fold change: -0.0351

RRIRARPPRLPRPRPRPVHVPRP
shrunken log2 fold change: 0.00822

RRIRQRPPRLPRPRPRPWSLPRP
shrunken log2 fold change: -0.0828

RRIRWRPPRLPRPRPRPQALPRP
shrunken log2 fold change: 0.113

RRIRCRPPRLPRPRPRPLKAPRP
shrunken log2 fold change: -0.249

RRIRLRPPRLPRPRPRPNMQPRP
shrunken log2 fold change: -0.171

RRIRERPPRLPRPRPRPEICPRP
shrunken log2 fold change: 0.162

RRIRMRPPRLPRPRPRPYYRPRP
shrunken log2 fold change: 0.0143

RRIRKRPPRLPRPRPRPSDVPRP
shrunken log2 fold change: -0.157

RRIRKRPPRLPRPRPRPWMMPRP
shrunken log2 fold change: 0.211

RRIRGRPPRLPRPRPRPHHQPRP
shrunken log2 fold change: -0.185

RRIRDRPPRLPRPRPRPTGLPRP
shrunken log2 fold change: -0.000418

RRIRHRPPRLPRPRPRPLIGPRP
shrunken log2 fold change: -0.155

RRIRERPPRLPRPRPRPIARPRP
shrunken log2 fold change: -0.0237

RRIRWRPPRLPRPRPRPVAEPRP
shrunken log2 fold change: 1.41

RRIRIRPPRLPRPRPRPFICPRP
shrunken log2 fold change: -0.304

RRIRHRPPRLPRPRPRPSMAPRP
shrunken log2 fold change: 0.231

RRIRQRPPRLPRPRPRPMLGPRP
shrunken log2 fold change: 0.0371

RRIRMRPPRLPRPRPRPGINPRP
shrunken log2 fold change: -0.319

RRIRPRPPRLPRPRPRPQANPRP
shrunken log2 fold change: -0.137

RRIRVRPPRLPRPRPRPIYYPRP
shrunken log2 fold change: -0.455

RRIRRRPPRLPRPRPRPQHVPRP
shrunken log2 fold change: -0.0783

RRIRVRPPRLPRPRPRPIRFPRP
shrunken log2 fold change: -0.0571

RRIRHRPPRLPRPRPRPRLWPRP
shrunken log2 fold change: 0.63

RRIRWRPPRLPRPRPRPEGYPRP
shrunken log2 fold change: 0.607

RRIRPRPPRLPRPRPRPPRMPRP
shrunken log2 fold change: 0.412

RRIRQRPPRLPRPRPRPYISPRP
shrunken log2 fold change: -0.716

RRIRWRPPRLPRPRPRPISMPRP
shrunken log2 fold change: -0.209

RRIRKRPPRLPRPRPRPMLKPRP
shrunken log2 fold change: 0.954

RRIRERPPRLPRPRPRPAWGPRP
shrunken log2 fold change: -0.00226

RRIRMRPPRLPRPRPRPTHYPRP
shrunken log2 fold change: 0.226

RRIRARPPRLPRPRPRPMHMPRP
shrunken log2 fold change: -0.0568

RRIRVRPPRLPRPRPRPECPPRP
shrunken log2 fold change: 0.0319

RRIRSRPPRLPRPRPRPIMDPRP
shrunken log2 fold change: -0.0619

RRIRARPPRLPRPRPRPQPAPRP
shrunken log2 fold change: 0.679

RRIRVRPPRLPRPRPRPICHPRP
shrunken log2 fold change: -0.224

RRIRHRPPRLPRPRPRPKKIPRP
shrunken log2 fold change: -0.129

RRIRDRPPRLPRPRPRPHMVPRP
shrunken log2 fold change: -0.195

RRIRMRPPRLPRPRPRPPSGPRP
shrunken log2 fold change: 0.525

RRIRSRPPRLPRPRPRPDNLPRP
shrunken log2 fold change: -0.0926

RRIRERPPRLPRPRPRPYTQPRP
shrunken log2 fold change: -0.0502

RRIRDRPPRLPRPRPRPTPKPRP
shrunken log2 fold change: 0.346

RRIRFRPPRLPRPRPRPIQVPRP
shrunken log2 fold change: -0.228

RRIRSRPPRLPRPRPRPYKPPRP
shrunken log2 fold change: -0.195

RRIRDRPPRLPRPRPRPTSFPRP
shrunken log2 fold change: -0.0323

RRIRRRPPRLPRPRPRPSKPPRP
shrunken log2 fold change: 0.241

RRIRTRPPRLPRPRPRPKMVPRP
shrunken log2 fold change: -0.0237

RRIRSRPPRLPRPRPRPPGEPRP
shrunken log2 fold change: 0.756

RRIRSRPPRLPRPRPRPLVNPRP
shrunken log2 fold change: -0.138

RRIRRRPPRLPRPRPRPWADPRP
shrunken log2 fold change: -0.143

RRIRDRPPRLPRPRPRPWGDPRP
shrunken log2 fold change: 0.13

RRIRMRPPRLPRPRPRPYRDPRP
shrunken log2 fold change: -0.018

RRIRSRPPRLPRPRPRPCLGPRP
shrunken log2 fold change: -0.127
